# B1: HA-TNIK K54R, ATP binding site mutant of human TNIK expressed from pCIneo-HA-TNIK K54R (protein)
# chain: MASDSPARSLDEIDLSALRDPAGIFELVELVGNGTYGQVYKGRHVKTGQLAAIRVMDVTGDEEEEIKQEINMLKKYSHHRNIATYYGAFIKKNPPGMDDQLWLVMEFCGAGSVTDLIKNTKGNTLKEEWIAYICREILRGLSHLHQHKVIHRDIKGQNVLLTENAEVKLVDFGVSAQLDRTVGRRNTFIGTPYWMAPEVIACDENPDATYDFKSDLWSLGITAIEMAEGAPPLCDMHPMRALFLIPRNPAPRLKSKKWSKKFQSFIESCLVKNHSQRPATEQLMKHPFIRDQPNERQVRIQLKDHIDRTKKKRGEKDETEYEYSGSEEEEEENDSGEPSSILNLPGESTLRRDFLRLQLANKERSEALRRQQLEQQQRENEEHKRQLLAERQKRIEEQKEQRRRLEEQQRREKELRKQQEREQRRHYEEQMRREEERRRAEHEQEYIRRQLEEEQRQLEILQQQLLHEQALLLEYKRKQLEEQRQAERLQRQLKQERDYLVSLQHQRQEQRPVEKKPLYHYKEGMSPSEKPAWAKEVEERSRLNRQSSPAMPHKVANRISDPNLPPRSESFSISGVQPARTPPMLRPVDPQIPHLVAVKSQGPALTASQSVHEQPTKGLSGFQEALNVTSHRVEMPRQNSDPTSENPPLPTRIEKFDRSSWLRQEEDIPPKVPQRTTSISPALARKNSPGNGSALGPRLGSQPIRASNPDLRRTEPILESPLQRTSSGSSSSSSTPSSQPSSQGGSQPGSQAGSSERTRVRANSKSEGSPVLPHEPAKVKPEESRDITRPSRPASYKKAIDEDLTALAKELRELRIEETNRPMKKVTDYSSSSEESESSEEEEEDGESETHDGTVAVSDIPRLIPTGAPGSNEQYNVGMVGTHGLETSHADSFSGSISREGTLMIRETSGEKKRSGHSDSNGFAGHINLPDLVQQSHSPAGTPTEGLGRVSTHSQEMDSGTEYGMGSSTKASFTPFVDPRVYQTSPTDEDEEDEESSAAALFTSELLRQEQAKLNEARKISVVNVNPTNIRPHSDTPEIRKYKKRFNSEILCAALWGVNLLVGTENGLMLLDRSGQGKVYNLINRRRFQQMDVLEGLNVLVTISGKKNKLRVYYLSWLRNRILHNDPEVEKKQGWITVGDLEGCIHYKVVKYERIKFLVIALKNAVEIYAWAPKPYHKFMAFKSFADLQHKPLLVDLTVEEGQRLKVIFGSHTGFHVIDVDSGNSYDIYIPSHIQGNITPHAIVILPKTDGMEMLVCYEDEGVYVNTYGRITKDVVLQWGEMPTSVAYIHSNQIMGWGEKAIEIRSVETGHLDGVFMHKRAQRLKFLCERNDKVFFASVRSGGSSQVFFMTLNRNSMMNW
# Target: T1, FLAG-TCF4, full length human TCF4 expressed from pFLAG-CMV-4, Q9NQB0
# T1 chain: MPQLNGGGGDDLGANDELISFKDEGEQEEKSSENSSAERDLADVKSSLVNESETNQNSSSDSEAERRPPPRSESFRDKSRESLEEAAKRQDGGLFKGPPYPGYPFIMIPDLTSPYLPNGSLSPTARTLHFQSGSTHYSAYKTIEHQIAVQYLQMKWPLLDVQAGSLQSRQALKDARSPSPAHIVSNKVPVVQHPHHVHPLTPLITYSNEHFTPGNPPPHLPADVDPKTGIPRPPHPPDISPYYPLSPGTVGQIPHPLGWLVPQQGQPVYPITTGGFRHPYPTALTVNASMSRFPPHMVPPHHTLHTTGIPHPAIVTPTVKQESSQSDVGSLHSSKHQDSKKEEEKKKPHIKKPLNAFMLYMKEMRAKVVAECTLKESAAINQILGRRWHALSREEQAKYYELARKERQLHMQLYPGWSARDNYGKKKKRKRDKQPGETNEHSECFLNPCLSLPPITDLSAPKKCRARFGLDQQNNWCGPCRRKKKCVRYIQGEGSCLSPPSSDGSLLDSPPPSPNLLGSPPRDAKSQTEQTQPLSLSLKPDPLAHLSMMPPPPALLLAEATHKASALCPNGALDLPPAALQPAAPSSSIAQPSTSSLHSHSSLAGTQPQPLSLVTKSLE
protein,measurement,value
B1,"serine phosphorylation of TCF4 (immunoprecipitation with anti-TCF4, immunoblot with anti-phospho-serine antibody)",significant serine phosphorylation was not observed compared with control
